The data set concerns the molecule itself. Put plainly: native Tris-Glycine gel, self-association (homotrimer) of apM1(82-244). The protocol: After storage at −20° C. for several weeks the material was verified to have a heterogeneous appearance on a coomassie stained Novex 8-16% Tris-Glycine gel (Invitrogen; Cat. No. EC60452) run under native conditions (FIG. 4, lane 1). […] (In FIG. 4, M is SeeBlue Plus2).

B1: apM1(82-244), human adiponectin fragment expressed in CHO K1 cells (other)
chain: ETGVPGAEGPRGFPGIQGRKGEPGEGAYVYRSAFSVGLETYVTIPNMPIRFTKIFYNQQNHYDGSTGKFHCNIPGLYYFAYHITVYMKDVKVSLFKKDKAMLFTYDQYQENNVDQASGSVLLHLEVGDQVWLQVYGEGERNGLYADNDNDSTFTGFLLYHDTN
modifications: partial hydroxy-Pro at 86, 95 and 104; partial glyco-hydroxy-Lys at 101 (about 60%)
notes: Forms a calcium-stabilised homotrimer on native gels; On the Western blot the denatured monomer is detected
Turning to B1, the binding result was “binds”.

The values are drawn from patent US20060052292A1 (MAXYGEN APS MAXYGEN, published 2006).
